System: Escherichia coli TOP10
Assay: shrunken log2 fold change of peptide-encoding DNA abundance (4.5 h post-induction vs induction); higher = less antimicrobial activity (less host growth inhibition)
Conditions: time post-induction: 4.5 h; library: site-saturation at positions 5, 18, 19, 20
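Further: peptides expressed intracellularly from a pBAD plasmid library in pooled LB shake-flask culture, induced with 0.3% L-arabinose, DNA abundance read by NGS, three biological replicates, DESeq2 with apeglm shrinkage.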

Row | Sequence | shrunken log2 fold change
1 | RRIRHRPPRLPRPRPRPGMWPRP | -0.0849
2 | RRIRFRPPRLPRPRPRPRWSPRP | 0.112
3 | RRIRWRPPRLPRPRPRPFPQPRP | 0.0229
4 | RRIRWRPPRLPRPRPRPKQVPRP | 0.285
5 | RRIRMRPPRLPRPRPRPNWPPRP | 0.096
6 | RRIRNRPPRLPRPRPRPKEKPRP | -0.016
7 | RRIRCRPPRLPRPRPRPWHGPRP | -0.244
8 | RRIRQRPPRLPRPRPRPAVGPRP | 0.0738
9 | RRIRWRPPRLPRPRPRPISHPRP | -0.24
10 | RRIRVRPPRLPRPRPRPRCAPRP | 0.517
11 | RRIRQRPPRLPRPRPRPYATPRP | -0.326
12 | RRIRERPPRLPRPRPRPYATPRP | -0.359
13 | RRIRIRPPRLPRPRPRPGQLPRP | 0.0335
14 | RRIRCRPPRLPRPRPRPRTTPRP | 0.472
15 | RRIRVRPPRLPRPRPRPCKQPRP | -0.148
16 | RRIRMRPPRLPRPRPRPNYIPRP | -0.492
17 | RRIRTRPPRLPRPRPRPAWAPRP | 1.53
18 | RRIRCRPPRLPRPRPRPEPSPRP | 0.146
19 | RRIRKRPPRLPRPRPRPCDFPRP | -0.231
20 | RRIRIRPPRLPRPRPRPEDIPRP | -0.407
21 | RRIRYRPPRLPRPRPRPAKVPRP | 0.00738
22 | RRIRRRPPRLPRPRPRPISFPRP | -0.27
23 | RRIRIRPPRLPRPRPRPQHNPRP | -0.735
24 | RRIRKRPPRLPRPRPRPQKPPRP | 0.00856
25 | RRIRPRPPRLPRPRPRPCSIPRP | -0.232

Row | Sequence | shrunken log2 fold change
26 | RRIRLRPPRLPRPRPRPAFPPRP | 0.0371
27 | RRIRMRPPRLPRPRPRPFPQPRP | 0.103
28 | RRIRGRPPRLPRPRPRPNAYPRP | 0.426
29 | RRIRYRPPRLPRPRPRPLQIPRP | -0.51
30 | RRIRHRPPRLPRPRPRPSDMPRP | 2.66
31 | RRIRYRPPRLPRPRPRPINWPRP | -0.446
32 | RRIRARPPRLPRPRPRPLAVPRP | 0.716
33 | RRIRFRPPRLPRPRPRPQERPRP | 0.0046
34 | RRIRCRPPRLPRPRPRPSQGPRP | -0.137
35 | RRIRWRPPRLPRPRPRPRFPPRP | 0.304
36 | RRIRKRPPRLPRPRPRPLLRPRP | 0.477
37 | RRIRSRPPRLPRPRPRPGPHPRP | -0.109
38 | RRIRKRPPRLPRPRPRPIWPPRP | 0.345
39 | RRIRARPPRLPRPRPRPNKHPRP | -0.171
40 | RRIRQRPPRLPRPRPRPKNVPRP | 0.225
41 | RRIRCRPPRLPRPRPRPWICPRP | -1
42 | RRIRSRPPRLPRPRPRPNNCPRP | -0.186
43 | RRIRIRPPRLPRPRPRPIHLPRP | -0.352
44 | RRIRYRPPRLPRPRPRPCKVPRP | -0.422
45 | RRIRIRPPRLPRPRPRPPHSPRP | -0.164
46 | RRIRIRPPRLPRPRPRPSNKPRP | -1.01
47 | RRIRRRPPRLPRPRPRPPYKPRP | 0.114
48 | RRIRSRPPRLPRPRPRPGEEPRP | 0.499
49 | RRIRQRPPRLPRPRPRPTFLPRP | -0.358
50 | RRIRIRPPRLPRPRPRPACNPRP | -0.363

Row | Sequence | shrunken log2 fold change
51 | RRIRKRPPRLPRPRPRPIGKPRP | 0.0962
52 | RRIRFRPPRLPRPRPRPIYLPRP | -0.626
53 | RRIRARPPRLPRPRPRPWHNPRP | -0.0874
54 | RRIRMRPPRLPRPRPRPGATPRP | 1.38
55 | RRIRTRPPRLPRPRPRPIAGPRP | -0.16
56 | RRIRSRPPRLPRPRPRPLHAPRP | 0.556
57 | RRIRLRPPRLPRPRPRPVPSPRP | 0.157
58 | RRIRDRPPRLPRPRPRPNGIPRP | 0.012
59 | RRIRLRPPRLPRPRPRPAFMPRP | -0.112
60 | RRIRLRPPRLPRPRPRPIGWPRP | 0.156
61 | RRIRLRPPRLPRPRPRPIVAPRP | -0.0323
62 | RRIRVRPPRLPRPRPRPKFKPRP | -0.2
63 | RRIRGRPPRLPRPRPRPLVHPRP | -0.0335
64 | RRIRWRPPRLPRPRPRPFYKPRP | -0.658
65 | RRIRVRPPRLPRPRPRPESDPRP | 0.0889
66 | RRIRIRPPRLPRPRPRPTAKPRP | -0.184
67 | RRIRIRPPRLPRPRPRPKSAPRP | -0.0724
68 | RRIRVRPPRLPRPRPRPVKLPRP | -0.407
69 | RRIRWRPPRLPRPRPRPYSVPRP | -0.55
70 | RRIRYRPPRLPRPRPRPYMAPRP | -1.71
71 | RRIRKRPPRLPRPRPRPVAHPRP | 0.353
72 | RRIRQRPPRLPRPRPRPLMVPRP | -0.13
73 | RRIRIRPPRLPRPRPRPNTKPRP | -0.202
74 | RRIRARPPRLPRPRPRPLPAPRP | 1.02
75 | RRIRDRPPRLPRPRPRPFMCPRP | -0.0266

Row | Sequence | shrunken log2 fold change
76 | RRIRDRPPRLPRPRPRPPNEPRP | -0.0231
77 | RRIRERPPRLPRPRPRPHPRPRP | 0.278
78 | RRIRGRPPRLPRPRPRPFDAPRP | -0.00556
79 | RRIRERPPRLPRPRPRPQFGPRP | 0.222
80 | RRIRNRPPRLPRPRPRPYRDPRP | -0.0123
81 | RRIRSRPPRLPRPRPRPNQMPRP | 0.0306
82 | RRIRMRPPRLPRPRPRPMCPPRP | -0.00088
83 | RRIRFRPPRLPRPRPRPVYVPRP | -0.93
84 | RRIRKRPPRLPRPRPRPWVTPRP | 0.000269
85 | RRIRYRPPRLPRPRPRPWCLPRP | -0.634
86 | RRIRRRPPRLPRPRPRPSPGPRP | 0.258
87 | RRIRFRPPRLPRPRPRPRRKPRP | 0.246
88 | RRIRVRPPRLPRPRPRPRGFPRP | 0.26
89 | RRIRDRPPRLPRPRPRPNGKPRP | -0.181
90 | RRIRFRPPRLPRPRPRPAVEPRP | 0.509
91 | RRIRHRPPRLPRPRPRPYPDPRP | 0.0372
92 | RRIRERPPRLPRPRPRPRMMPRP | -0.011
93 | RRIRTRPPRLPRPRPRPEETPRP | 0.0325
94 | RRIRRRPPRLPRPRPRPMSIPRP | -0.465
95 | RRIRQRPPRLPRPRPRPCALPRP | 0.0342
96 | RRIRNRPPRLPRPRPRPPWSPRP | -0.294
97 | RRIRARPPRLPRPRPRPGHLPRP | 0.337
98 | RRIRNRPPRLPRPRPRPRYWPRP | 0.0625
99 | RRIRCRPPRLPRPRPRPCEFPRP | -0.0925
100 | RRIRARPPRLPRPRPRPGKHPRP | 0.089

Row | Sequence | shrunken log2 fold change
101 | RRIRLRPPRLPRPRPRPWCAPRP | -0.0114
102 | RRIRTRPPRLPRPRPRPEYCPRP | -0.189
103 | RRIRMRPPRLPRPRPRPHLCPRP | -0.117
104 | RRIRLRPPRLPRPRPRPTHPPRP | 0.0349
105 | RRIRKRPPRLPRPRPRPFYRPRP | 0.0824
106 | RRIRPRPPRLPRPRPRPMAPPRP | -0.0483
107 | RRIRWRPPRLPRPRPRPQTNPRP | 0.14
108 | RRIRIRPPRLPRPRPRPLGQPRP | -0.00501
109 | RRIRWRPPRLPRPRPRPLHHPRP | -0.0749
110 | RRIRMRPPRLPRPRPRPSNYPRP | -0.078
111 | RRIRLRPPRLPRPRPRPYICPRP | -0.0262
112 | RRIRGRPPRLPRPRPRPWYNPRP | -0.358
113 | RRIRIRPPRLPRPRPRPEITPRP | -0.461
114 | RRIRLRPPRLPRPRPRPYKPPRP | -0.789
115 | RRIRLRPPRLPRPRPRPNRWPRP | 0.254
116 | RRIRERPPRLPRPRPRPNNCPRP | -0.24
117 | RRIRVRPPRLPRPRPRPNTPPRP | -0.0576
118 | RRIRHRPPRLPRPRPRPKEIPRP | -0.00142
119 | RRIRHRPPRLPRPRPRPRSSPRP | -0.00605
120 | RRIRRRPPRLPRPRPRPQTIPRP | 0.272
121 | RRIRNRPPRLPRPRPRPFKEPRP | -0.161
122 | RRIRRRPPRLPRPRPRPAEMPRP | 0.219
123 | RRIRGRPPRLPRPRPRPLSTPRP | 1.13
124 | RRIRRRPPRLPRPRPRPYQEPRP | -0.259
125 | RRIRSRPPRLPRPRPRPMFAPRP | 0.154

Row | Sequence | shrunken log2 fold change
126 | RRIRMRPPRLPRPRPRPSWFPRP | 0.0112
127 | RRIRFRPPRLPRPRPRPNDPPRP | -0.226
128 | RRIRHRPPRLPRPRPRPPHDPRP | 0.047
129 | RRIRLRPPRLPRPRPRPGQPPRP | 0.187
130 | RRIRARPPRLPRPRPRPWIAPRP | -0.0071
131 | RRIRKRPPRLPRPRPRPVGLPRP | 0.174
132 | RRIRIRPPRLPRPRPRPICAPRP | 0.0269
133 | RRIRKRPPRLPRPRPRPHPGPRP | 0.293
134 | RRIRARPPRLPRPRPRPKEFPRP | 0.355
135 | RRIRARPPRLPRPRPRPNLGPRP | 0.0306
136 | RRIRKRPPRLPRPRPRPMWVPRP | -0.232
137 | RRIRHRPPRLPRPRPRPGHRPRP | -0.0928
138 | RRIRFRPPRLPRPRPRPENSPRP | -3.45e-05
139 | RRIRKRPPRLPRPRPRPWGRPRP | 0.179
140 | RRIRQRPPRLPRPRPRPMLEPRP | 0.0533
141 | RRIRGRPPRLPRPRPRPVCEPRP | 1.06
142 | RRIRQRPPRLPRPRPRPWTCPRP | 0.0112
143 | RRIRTRPPRLPRPRPRPAFDPRP | 0.161
144 | RRIRYRPPRLPRPRPRPQLKPRP | -0.526
145 | RRIRKRPPRLPRPRPRPGTVPRP | 0.0317
146 | RRIRHRPPRLPRPRPRPQSEPRP | -0.314
147 | RRIRFRPPRLPRPRPRPPVQPRP | 0.3
148 | RRIRARPPRLPRPRPRPQKEPRP | -0.0202
149 | RRIRNRPPRLPRPRPRPNWVPRP | 0.0876
150 | RRIRARPPRLPRPRPRPNCCPRP | 0.131
